Experimental data: US20200140532A1

Molecular target: recombinant cynomolgus Aggrecan G1-IGD-G2 (cynomolgus)
Assay: periplasmic extract ELISA

Row | OD 450 nm | Binder
1 | 2.57 OD 450 nm | C0101PMP113A01 (VHH, not shown: large carriers) VHH: EVQLVESGGGLVQPGGSLRLSCSASGFTFSGSWMFWVRQAPGKDYEWVASINSSGGRTYYDDSVKGRFTISRDSAKNTLYLEMNNLKPEDTALYFCARSPRVGSWGQGTQVTVSS
2 | 1.32 OD 450 nm | C0101PMP601E08 (VHH, not shown: large carriers) VHH: DVQLVESGGGLVQPGGSLRLSCTASGRTFSSYAVGWFRQAPGKEREFVAAISRSGRSTYYADSVKGRFTISRDNSKNTVYLQMNSLRPEDTAVYYCAAGLSYYSPHAYYDYWGQGTLVTVSS
3 | 1.37 OD 450 nm | C0101PMP604F02 (VHH, not shown: large carriers) VHH: DVQLVESGGGLVQPGGSLRLSCAASGRTFSSYTMGWFRQAPGKEREFVAAISWSGGRTYYADSVKGRFTISRDNSKNTVYLQMNSLRPEDTAVYYCAAYRRRRASSNRGLWDYWGQGTLVTVSS
4 | 1.24 OD 450 nm | C0101PMP606A05 (VHH, not shown: large carriers) VHH: DVQLVESGGGLVQPGGSLRLSCVASGRTFSIYTMGWFRQAPGKEREFVAAISWSGGRTYYADSVKGRFTISRDNSKNTVYLQMNSLRPEDTAVYYCTAYTGRSYGSYDYWGQGTLVTVSS
5 | 1.83 OD 450 nm | C0101PMP609C09 (VHH, not shown: large carriers) VHH: DVQLVESGGGLVQPGGSLRLSCAASGTIFSINVMGWYRQAPGKEREFVAAITTGGRTNYADSVKGRFTISRDNSKNTVYLQMNSLRPEDTAVYYCNAEVTTGWVGYSWYDYWGQGTMVTVSS
6 | 1.57 OD 450 nm | C0101PMP604G09 (VHH, not shown: large carriers) VHH: DVQLVESGGGLVQPGGSLRLSCVASGRTFSSYAMGWFRQAPGKEREFVAAITWSSATTYYADSVKGRFTISRDNSKNTVYLQMNSLRPEDTAVYYCAAARIPVGRRSENWDYWGQGTLVTVSS
7 | 2.48 OD 450 nm | C0101PMP608A05 (VHH, not shown: large carriers) VHH: DVQLVESGGGLVQPGGSLRLSCAASGRTFSTYTMGWFRQAPGKEREFVAAISWSGGTTYYADSVKGRFTISRDNSKNTVYLQMNSLRPEDTAVYYCAARPRYYYYSLYSYDYWGQGTLVTVSS
8 | 0.6 OD 450 nm | C0101PMP102G11 (VHH, not shown: large carriers) VHH: EVQLVESGGGLVQAGGSLRLSCAASGRSFSSYAMGWFRQAPGKEREFVSIISWSGGSTVYADSVKGRFTISRDNAKNTVYLQMNSLKPEDTAIYYCAAGRLYRATPRPADFGSWGQGTQVTVSS
9 | 2.21 OD 450 nm | C0101PMP117G09 (VHH, not shown: large carriers) VHH: EVQLVESGGGSALPGGSLRLSCAASGITFSSRYMRWYRQAPGRQRELVAAISSGGRTDYVDSVRGRFTLSINNAKNTVYLQMNDLKPEDTAVYYCYRPRMYVDGTYEKELWGQGTLVTVSS
10 | 2.41 OD 450 nm | C0101PMP606A07 (VHH, not shown: large carriers) VHH: DVQLVESGGGLVQPGGSLRLSCVASGRTFSIYGMGWFRQAPGKEREFVAAINGGSRTYYADSVKGRFTISRDNSKNTVYLQMNSLRPEDTAVYYCAADRSGYGTSLDWWYDYWGQGTLVTVSS
11 | 2.32 OD 450 nm | C0101PMP114F08 (VHH, not shown: large carriers) VHH: EVQLVESGGGLVQAGGSLRLSCAASGSTFIINVVRWYRRTPGKQRELVATISSGGNANYVDSVRGRFSISRDGAKNAVDLQMNGLKPEDTAVYYCNVPTTHYGGVYYGPYWGQGTQVTVSS
12 | 2.36 OD 450 nm | C0101PMP112A03 (VHH, not shown: large carriers) VHH: EVQLVESGGGLVQPGGSLRLSCAASGSIFSNRFMYWYRQAPGKQRELVASITLSGSTNYADSVKGRFTISRDNAKNTVYLQMNSLKPEDTAVYYCNTFLQNSFYWGQGTQVTVSS
13 | 2.04 OD 450 nm | C0101PMP604B05 (VHH, not shown: large carriers) VHH: DVQLVESGGGLVQPGGSLRLSCVASGRTFSIYTMAWFRQAPGKEREFVAAISWSSGRTYYADSVKGRFTISRDNSKNTVYLQMNSLRPEDTAVYYCTAYTGPRSGYDYWGQGTLVTVSS
14 | 1.18 OD 450 nm | C0101PMP115B08 (VHH, not shown: large carriers) VHH: KVQLVESGGGLVQPGGSLRLSCAASGFTFSMYAMKWVRQAPGKGLEWVSGINSSGGRTNYAGSVKGRFTISRDNAKNTLYLQMNSLKPEDTAVYYCATDFLGGRNSRGQGTQVTVSS
15 | 1.25 OD 450 nm | C0101PMP604G01 (VHH, not shown: large carriers) VHH: DVQLVESGGGLVQPGGSLRLSCAASGRTFSSYTMGWFRQAPGKEREFVAAISWSGRTTYYADSVKGRFTISRDNSKNTVYLQMNSLRPEDTAVYYCAAYRRVRYTNLEVWDYWGQGTLVTVSS
16 | 2.5 OD 450 nm | C0101PMP112A01 (VHH, not shown: large carriers) VHH: EVQLVESGGGLVQTGGSLRLSCVASGRAFSNYIMGWFRQAPGKERDFVAAINWNGVTTHYTDSVKGRFTISRDNAKSTSYLQMDSLKPDDTAVYFCAARGTVYSRTYGVSEEGYMYWGQGTQVTVSS
17 | 2.12 OD 450 nm | C0101PMP117D05 (VHH, not shown: large carriers) VHH: KVQLVESGGGLVQAGGSLRLSCAASRRTFNMMGWFRQAPGKEREFVAYITWNGGDTRYAESVKGRFTVSRDDVKNTMALQMNRLDPLDTAVYYCGVRIHGSNWSTKADDYDNWGQGTQVTVSS

Molecular target: recombinant cynomolgus Aggrecan G1-IGD-G2 (cynomolgus)
Assay: ELISA on recombinant G1-IGD-G2

Row | EC50 | Binder
18 | 6.8 nM | C01010046 (601E08-ALB26) (VHH, not shown: small tags and cut ends) VHH: DVQLVESGGGLVQPGGSLRLSCTASGRTFSSYAVGWFRQAPGKEREFVAAISRSGRSTYYADSVKGRFTISRDNSKNTVYLQMNSLRPEDTAVYYCAAGLSYYSPHAYYDYWGQGTLVTVSS
19 | 2.2 nM | C01010094 (604F02-ALB26) (VHH, not shown: small tags and cut ends) VHH: DVQLVESGGGLVQPGGSLRLSCAASGRTFSSYTMGWFRQAPGKEREFVAAISWSGGRTYYADSVKGRFTISRDNSKNTVYLQMNSLRPEDTAVYYCAAYRRRRASSNRGLWDYWGQGTLVTVSS
20 | 0.068 nM | C01010106 (ALB26-604F02-604F02) (VHH, not shown: large carriers; small tags and cut ends) VHH 1: DVQLVESGGGLVQPGGSLRLSCAASGRTFSSYTMGWFRQAPGKEREFVAAISWSGGRTYYADSVKGRFTISRDNSKNTVYLQMNSLRPEDTAVYYCAAYRRRRASSNRGLWDYWGQGTLVTVSS VHH 2: DVQLVESGGGLVQPGGSLRLSCAASGRTFSSYTMGWFRQAPGKEREFVAAISWSGGRTYYADSVKGRFTISRDNSKNTVYLQMNSLRPEDTAVYYCAAYRRRRASSNRGLWDYWGQGTLVTVSS
21 | 0.21 nM | C01010097 (608A05-ALB26) (VHH, not shown: small tags and cut ends) VHH: DVQLVESGGGLVQPGGSLRLSCAASGRTFSTYTMGWFRQAPGKEREFVAAISWSGGTTYYADSVKGRFTISRDNSKNTVYLQMNSLRPEDTAVYYCAARPRYYYYSLYSYDYWGQGTLVTVSS
22 | 0.091 nM | C01010109 (ALB26-608A05-608A05) (VHH, not shown: small tags and cut ends) VHH 1: DVQLVESGGGLVQPGGSLRLSCAASGRTFSTYTMGWFRQAPGKEREFVAAISWSGGTTYYADSVKGRFTISRDNSKNTVYLQMNSLRPEDTAVYYCAARPRYYYYSLYSYDYWGQGTLVTVSS VHH 2: DVQLVESGGGLVQPGGSLRLSCAASGRTFSTYTMGWFRQAPGKEREFVAAISWSGGTTYYADSVKGRFTISRDNSKNTVYLQMNSLRPEDTAVYYCAARPRYYYYSLYSYDYWGQGTLVTVSS
23 | 5.4 nM | C01010060 (606A07-ALB26) (VHH, not shown: small tags and cut ends) VHH: DVQLVESGGGLVQPGGSLRLSCVASGRTFSIYGMGWFRQAPGKEREFVAAINGGSRTYYADSVKGRFTISRDNSKNTVYLQMNSLRPEDTAVYYCAADRSGYGTSLDWWYDYWGQGTLVTVSS
24 | 0.3 nM | C01010113 (ALB26-606A07-606A07) (VHH, not shown: small tags and cut ends) VHH 1: DVQLVESGGGLVQPGGSLRLSCVASGRTFSIYGMGWFRQAPGKEREFVAAINGGSRTYYADSVKGRFTISRDNSKNTVYLQMNSLRPEDTAVYYCAADRSGYGTSLDWWYDYWGQGTLVTVSS VHH 2: DVQLVESGGGLVQPGGSLRLSCVASGRTFSIYGMGWFRQAPGKEREFVAAINGGSRTYYADSVKGRFTISRDNSKNTVYLQMNSLRPEDTAVYYCAADRSGYGTSLDWWYDYWGQGTLVTVSS
25 | 4.4 nM | C01010054 (114F08-ALB26) (VHH, not shown: small tags and cut ends) VHH: EVQLVESGGGLVQAGGSLRLSCAASGSTFIINVVRWYRRTPGKQRELVATISSGGNANYVDSVRGRFSISRDGAKNAVDLQMNGLKPEDTAVYYCNVPTTHYGGVYYGPYWGQGTQVTVSS
26 | 0.076 nM | C01010118 (ALB26-114F08-114F08) (VHH, not shown: small tags and cut ends) VHH 1: EVQLVESGGGLVQAGGSLRLSCAASGSTFIINVVRWYRRTPGKQRELVATISSGGNANYVDSVRGRFSISRDGAKNAVDLQMNGLKPEDTAVYYCNVPTTHYGGVYYGPYWGQGTQVTVSS VHH 2: EVQLVESGGGLVQAGGSLRLSCAASGSTFIINVVRWYRRTPGKQRELVATISSGGNANYVDSVRGRFSISRDGAKNAVDLQMNGLKPEDTAVYYCNVPTTHYGGVYYGPYWGQGTQVTVSS

Molecular target: recombinant cynomolgus Aggrecan G1-IGD-G2 (cynomolgus)
Assay: SPR (ProteOn), off-rate only indicative

Row | koff | Binder
27 | 0.0031 s⁻¹ | C01010046 (601E08-ALB26) (VHH, not shown: small tags and cut ends) VHH: DVQLVESGGGLVQPGGSLRLSCTASGRTFSSYAVGWFRQAPGKEREFVAAISRSGRSTYYADSVKGRFTISRDNSKNTVYLQMNSLRPEDTAVYYCAAGLSYYSPHAYYDYWGQGTLVTVSS
28 | 0.15 s⁻¹ | C01010094 (604F02-ALB26) (VHH, not shown: small tags and cut ends) VHH: DVQLVESGGGLVQPGGSLRLSCAASGRTFSSYTMGWFRQAPGKEREFVAAISWSGGRTYYADSVKGRFTISRDNSKNTVYLQMNSLRPEDTAVYYCAAYRRRRASSNRGLWDYWGQGTLVTVSS
29 | 0.0018 s⁻¹ | C01010097 (608A05-ALB26) (VHH, not shown: small tags and cut ends) VHH: DVQLVESGGGLVQPGGSLRLSCAASGRTFSTYTMGWFRQAPGKEREFVAAISWSGGTTYYADSVKGRFTISRDNSKNTVYLQMNSLRPEDTAVYYCAARPRYYYYSLYSYDYWGQGTLVTVSS
30 | 0.02 s⁻¹ | C01010060 (606A07-ALB26) (VHH, not shown: small tags and cut ends) VHH: DVQLVESGGGLVQPGGSLRLSCVASGRTFSIYGMGWFRQAPGKEREFVAAINGGSRTYYADSVKGRFTISRDNSKNTVYLQMNSLRPEDTAVYYCAADRSGYGTSLDWWYDYWGQGTLVTVSS
31 | 0.0069 s⁻¹ | C01010054 (114F08-ALB26) (VHH, not shown: small tags and cut ends) VHH: EVQLVESGGGLVQAGGSLRLSCAASGSTFIINVVRWYRRTPGKQRELVATISSGGNANYVDSVRGRFSISRDGAKNAVDLQMNGLKPEDTAVYYCNVPTTHYGGVYYGPYWGQGTQVTVSS
